We go through one substance from PMC6677129.

This experiment deals with repeat domain (RPT) of Pmel17 (human) (UniProt P40967). The experiment can be described thus: co-sedimentation.

The substance “repeat domain (RPT) of Pmel17 (from UniProt P40967 315-444) (domain or fragment)” had a percent of RPT left in the supernatant, 0.1 mM LPG of 54%; a percent of RPT left in the supernatant, 0.5 mM LPG of 16%; a percent of protein in the supernatant, 0 mM LPG of 108%; a percent of protein in the supernatant, 10 mM LPG of 92%.
